Columns and labels:
SMAD4 R100T;SMAD3 WT = assay: TR-FRET
SMAD4 WT;SMAD3 P124S = assay: TR-FRET

5'-FAM-SBE4 gave a binding signal (% of WT PDI signal) (SMAD4 R100T;SMAD3 WT) of 25 and a binding signal (% of WT PDI signal) (SMAD4 WT;SMAD3 P124S) of 25.

Source: paper doi:10.1101/2023.07.15.549169
